Reference: publication PMC4933286

Tests used:
[1] = molecular target: BTV-1 VP5 mutant 2 (R10L/K13L/K14L) (bluetongue virus serotype 1 (BTV-1)); assay: native gel or EMSA
[2] = molecular target: BTV-1 VP5 mutant 3 (K3L/R6L/R10L/K13L/K14L) (bluetongue virus serotype 1 (BTV-1)); assay: native gel or EMSA

| Substance | stoichiometry N [1] | stoichiometry N [2] |
| --- | --- | --- |
| BTV-1 VP5 mutant 2 (R10L/K13L/K14L) (natural protein) | 3 | – |
| BTV-1 VP5 mutant 3 (K3L/R6L/R10L/K13L/K14L) (natural protein) | – | 3 |
